Data on 1 substance can be found in IntAct's records for PubMed 20228790.

The test has as its target PRKCB, P05771-1.

PRKCB, P05771-1, sequence (P05771 whole entry, looked up): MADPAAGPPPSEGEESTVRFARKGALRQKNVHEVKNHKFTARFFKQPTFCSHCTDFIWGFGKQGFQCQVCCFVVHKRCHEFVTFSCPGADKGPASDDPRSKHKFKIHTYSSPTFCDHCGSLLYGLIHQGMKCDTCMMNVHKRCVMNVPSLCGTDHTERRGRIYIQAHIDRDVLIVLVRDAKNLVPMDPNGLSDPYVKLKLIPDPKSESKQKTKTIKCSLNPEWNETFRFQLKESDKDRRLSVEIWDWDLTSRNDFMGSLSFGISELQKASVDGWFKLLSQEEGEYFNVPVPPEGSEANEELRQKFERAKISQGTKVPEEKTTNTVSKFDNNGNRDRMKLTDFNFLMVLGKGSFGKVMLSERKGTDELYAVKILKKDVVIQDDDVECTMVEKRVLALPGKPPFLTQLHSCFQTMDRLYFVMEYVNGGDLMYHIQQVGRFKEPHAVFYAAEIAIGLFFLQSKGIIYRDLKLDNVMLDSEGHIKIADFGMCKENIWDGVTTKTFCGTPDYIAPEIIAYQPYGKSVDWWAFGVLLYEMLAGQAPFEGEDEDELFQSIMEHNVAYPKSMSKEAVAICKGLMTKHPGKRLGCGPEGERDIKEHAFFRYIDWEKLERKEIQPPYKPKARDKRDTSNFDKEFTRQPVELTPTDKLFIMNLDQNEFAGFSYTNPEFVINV

Take “Histone H3.1 (Homo sapiens) (from UniProt P68431) T7A”: the “effect of a mutation on the interaction” value was “disrupting interaction”.
